Measurements from patent US20220411516A1.

Target: EGFRvIII (Epidermal Growth Factor Receptor Variant III) (human) (UniProt P00533)
Experiment: cell-based or functional assay

B1: AMG 596 (bispecific antibody, part only; not given: CD3-binding domain; linkers, part only)
chain, part: QVQLVESGGGVVQSGRSLRLSCAASGFTFRNYGMHWVRQAPGKCLEWVAVIWYDGSDKYYADSVRGRFTISRDNSKNTLYLQMNSLRAEDTAVYYCARDGYDILTGNPRDFDYWGQGTLVTVSSDTVMTQTPLSSHVTLGQPASISCRSSQSLVHSDGNTYLSWLQQRPGQPPRLLIYRISRRFSGVPDRFSGSGAGTDFTLEISRVEAEDVGVYYCMQSTHVPRTFGCGTKVEIK
For B1, the EC20 (in vitro cytotoxic activity) was 0.07 ng/mL, the EC50 (in vitro cytotoxic activity) was 0.41 ng/mL and the EC90 (concentration found to produce 90% cytotoxic activity) was 1.8 ng/mL.
